Data published in patent US20250250357A1 (NANJING ZAIMING PHARMACEUTICAL, published 2025).

Legend:
[1] = target: T1, human MSLN-R2-his protein (human, UniProt Q13421 391-486); assay: ELISA on coated antigen, antibody 1 nM
T1 construct: Self-made in HEK293E cells; also called human MSLN-R2 protein; hMSLN-R2-his; not shown: His tag

[2] = target: T2, human MSLN-R3-his protein (human, UniProt Q13421 487-598); assay: ELISA on coated antigen, antibody 1 nM
T2 construct: Self-made in HEK293E cells; also called human MSLN-R3 protein; hMSLN-R3-his; not shown: His tag

[3] = target: T3, human MSLN-R3-3 polypeptide (human); assay: ELISA on coated antigen, antibody 1 nM
T3 construct: also called human MSLN-R3-3 protein; hMSLN-R3-3
Protocol: (§1) The plate was sealed with a plastic film and incubated at 4° C. overnight. The next day, the plate was washed twice with PBST, and a blocking buffer [PBS+2% (w/w) BSA] was added for blocking at room temperature for 2 h. The blocking buffer was discarded, and a chimeric antibody or negative control antibody serially diluted from 100 nM was added at 50 μL/well. After incubation at 37° C. for 2 h, the plate was washed 3 times with PBST. […] After incubation at 37° C. for 2 h, the plate was washed 5 times with PBST. A TMB substrate was added at 50 μL/well for incubation at room temperature for 5-10 min, and then a stop solution (1.0 N HCl) was added at 50 μL/well.

[4] = target: T1, human MSLN-R2-his protein; assay: ELISA on coated antigen, antibody 10 nM
Protocol: as §1

[5] = target: T2, human MSLN-R3-his protein; assay: ELISA on coated antigen, antibody 10 nM
Protocol: as §1

[6] = target: T3, human MSLN-R3-3 polypeptide; assay: ELISA on coated antigen, antibody 10 nM
Protocol: as §1

[7] = target: T1, human MSLN-R2-his protein; assay: ELISA on coated antigen, antibody 0.1 nM
Protocol: as §1

[8] = target: T1, human MSLN-R2-his protein; assay: ELISA on coated antigen, antibody 100 nM
Protocol: as §1

[9] = target: T2, human MSLN-R3-his protein; assay: ELISA on coated antigen, antibody 0.1 nM
Protocol: as §1

[10] = target: T2, human MSLN-R3-his protein; assay: ELISA on coated antigen, antibody 100 nM
Protocol: as §1

[11] = target: T3, human MSLN-R3-3 polypeptide; assay: ELISA on coated antigen, antibody 0.1 nM
Protocol: as §1

[12] = target: T3, human MSLN-R3-3 polypeptide; assay: ELISA on coated antigen, antibody 100 nM
Protocol: as §1

[13] = target: T1, human MSLN-R2-his protein; assay: ELISA on coated antigen, antibody 0.01 nM
Protocol: as §1

[14] = target: T2, human MSLN-R3-his protein; assay: ELISA on coated antigen, antibody 0.01 nM
Protocol: as §1

[15] = target: T3, human MSLN-R3-3 polypeptide; assay: ELISA on coated antigen, antibody 0.01 nM
Protocol: as §1

[16] = target: T1, human MSLN-R2-his protein; assay: ELISA on coated antigen, antibody 0.001 nM
Protocol: as §1

[17] = target: T2, human MSLN-R3-his protein; assay: ELISA on coated antigen, antibody 0.001 nM
Protocol: as §1

[18] = target: T3, human MSLN-R3-3 polypeptide; assay: ELISA on coated antigen, antibody 0.001 nM
Protocol: as §1

[19] = target: T1, human MSLN-R2-his protein; assay: ELISA on coated antigen, antibody 0.0001 nM
Protocol: as §1

[20] = target: T2, human MSLN-R3-his protein; assay: ELISA on coated antigen, antibody 0.0001 nM
Protocol: as §1

[21] = target: T3, human MSLN-R3-3 polypeptide; assay: ELISA on coated antigen, antibody 0.0001 nM
Protocol: as §1

[22] = target: T1, human MSLN-R2-his protein; assay: ELISA on coated antigen, no antibody (column none)
Protocol: as §1

[23] = target: T2, human MSLN-R3-his protein; assay: ELISA on coated antigen, no antibody (column none)
Protocol: as §1

[24] = target: T3, human MSLN-R3-3 polypeptide; assay: ELISA on coated antigen, no antibody (column none)
Protocol: as §1

T2 sequence (Q13421 495-606): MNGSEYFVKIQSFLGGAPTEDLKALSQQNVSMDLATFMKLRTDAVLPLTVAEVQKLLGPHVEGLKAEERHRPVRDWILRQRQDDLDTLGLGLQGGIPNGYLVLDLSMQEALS
T1 sequence (Q13421 other isoform, or with tags, fused parts or gaps): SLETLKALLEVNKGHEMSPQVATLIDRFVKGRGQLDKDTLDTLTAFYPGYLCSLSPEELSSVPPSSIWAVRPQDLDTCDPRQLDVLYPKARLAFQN

Row | Binder | OD450 [1] | OD450 [2] | OD450 [3] | OD450 [4] | OD450 [5] | OD450 [6] | OD450 [7] | OD450 [8] | OD450 [9] | OD450 [10] | OD450 [11] | OD450 [12] | OD450 [13] | OD450 [14] | OD450 [15] | OD450 [16] | OD450 [17] | OD450 [18] | OD450 [19] | OD450 [20] | other results
1 | S009-F2.17.3 (antibody, human IgG1, kappa, V domains shown, Human-murine chimeric antibody: murine VH/VL on human IgG1 heavy and kappa light constant regions) VH: QVQLQQPGTELVTPGASVKLSCKASGYSFTSYWMHWVKQRPGQGLEWIGNINPSNGDTFYNEKFKNKATLTVDKSSSTAYMQLSSLTSEDSAVYYCARGWLRDYWGQGTTLTVSS VL: not shown | 0.05 OD450 | 0.29 OD450 | 0.05 OD450 | 0.05 OD450 | 1.19 OD450 | 0.05 OD450 | 0.05 OD450 | 0.06 OD450 | 0.07 OD450 | 2.3 OD450 | 0.05 OD450 | 0.05 OD450 | 0.05 OD450 | 0.05 OD450 | 0.05 OD450 | 0.05 OD450 | 0.05 OD450 | 0.05 OD450 | 0.05 OD450 | 0.05 OD450 | OD450 [21]: 0.05 OD450; OD450 [22]: 0.06 OD450; OD450 [23]: 0.06 OD450; OD450 [24]: 0.05 OD450
2 | S009-F2.21.4 (antibody, human IgG1, kappa, V domains shown, Human-murine chimeric antibody: murine VH/VL on human IgG1 heavy and kappa light constant regions) VH: EVQLQQSGPELVKPGASVKIPCKASGYTFTDYNMDWVKQSHGKSLEWIGDINPNNGGSIYNQRFKGKATLTVDKSSSTAYMELRSLTSEDSAVYYCARRAYYSTGYFDVWGTGTTVTVSS VL: QIVLTQSPALMSASPGEKVTITCSASSSISYMHWFQQKPGTSPKLWIYSTSTLASGVPARFSGSGSGTSYSLTISRMEAEDTATYYCQQRSSYPPTFGGGTKLEIKR | 0.05 OD450 | 0.05 OD450 | 0.05 OD450 | 0.05 OD450 | 0.05 OD450 | 0.05 OD450 | 0.05 OD450 | 0.06 OD450 | 0.05 OD450 | 0.06 OD450 | 0.05 OD450 | 0.05 OD450 | 0.05 OD450 | 0.05 OD450 | 0.05 OD450 | 0.05 OD450 | 0.05 OD450 | 0.05 OD450 | 0.05 OD450 | 0.05 OD450 | OD450 [21]: 0.05 OD450; OD450 [22]: 0.06 OD450; OD450 [23]: 0.06 OD450; OD450 [24]: 0.05 OD450
3 | S009-F2.23.12 (antibody, human IgG1, kappa, V domains shown, Human-murine chimeric antibody: murine VH/VL on human IgG1 heavy and kappa light constant regions) VH: QVQLQQPGTELVKPGASVKLSCKASGYTFTNYWMHWVKQRPGQGLEWIGNINPSNGGPYYNERFRSKATLTVDKSSSTAYMQLSSLTSEDSAVYYCARPYYGSSYGYFDYWGQGTTLTVSS VL: DIQMTQSPSSLSASLGGKVTITCKASQDINKYIAWYQHKPGKGPRLLIHYTSELQPGIPSRFSGNGSGRDYSFSISNLEPEDIATYYCLQYANPLRTFGGGTKLEIKR | 0.05 OD450 | 0.3 OD450 | 0.05 OD450 | 0.05 OD450 | 1.4 OD450 | 0.05 OD450 | 0.05 OD450 | 0.06 OD450 | 0.09 OD450 | 2.08 OD450 | 0.05 OD450 | 0.06 OD450 | 0.05 OD450 | 0.05 OD450 | 0.05 OD450 | 0.05 OD450 | 0.05 OD450 | 0.05 OD450 | 0.05 OD450 | 0.05 OD450 | OD450 [21]: 0.05 OD450; OD450 [22]: 0.06 OD450; OD450 [23]: 0.06 OD450; OD450 [24]: 0.05 OD450
4 | S009-F2.38.12 (antibody, human IgG1, kappa, V domains shown, Human-murine chimeric antibody: murine VH/VL on human IgG1 heavy and kappa light constant regions) VH: QVQLQQPGTELVKPGASVKLSCKASGYTFTSYWMHWVKQRPGQGLEWIGNINPSNGGTNYNEKIKNKATLTVDKSSSTAYMQLSSLTSEDSAVYYCARWNYYGNYPFDYWGQGTTLTVSS VL: DIVMTQSQKFMSTTVGDRVSITCKASQNVGTAVAWYQQKPGQSPKLLIYSASNRYTGVPDRFTGSGSGTDFTLTISNMQSEDLADYFCQQYSSYPLTFGAGTKLELKR | 0.05 OD450 | 0.05 OD450 | 0.05 OD450 | 0.05 OD450 | 0.05 OD450 | 0.05 OD450 | 0.05 OD450 | 0.06 OD450 | 0.05 OD450 | 0.06 OD450 | 0.05 OD450 | 0.06 OD450 | 0.05 OD450 | 0.04 OD450 | 0.05 OD450 | 0.05 OD450 | 0.05 OD450 | 0.05 OD450 | 0.05 OD450 | 0.05 OD450 | OD450 [21]: 0.05 OD450; OD450 [22]: 0.06 OD450; OD450 [23]: 0.05 OD450; OD450 [24]: 0.05 OD450
